Data taken from paper PMC7954794, “Protein context shapes the specificity of SH3 domain-mediated interactions in vivo” (Nature Communications, 2021).

System: growth of yeast strains under 51 stress conditions
Assay: Growth assays in 51 stress conditions (Fig. 1E-F, S2D, S5B)
Type: cell-based, Saccharomyces cerevisiae
Design: key to Growth (Fig. S2D) / growth of ABP1 SH3-swapped strains in stress condition: log2 colony size, average of median per strain (growth score)
Conditions: ABP1 SH3-swapped strains
Summary of the method: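 Yeast WT, SH3-deleted, KO, SH3-swapped and SH3-shuffled strains pinned in 1536 format, 12 replicates each; pregrown on YPD 2 days at 30 °C, then replicated onto 51 media at 37 °C and imaged every 2 h. Growth score = mean of per-plate median log2 colony size at 74 h.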

B1: MYO3 (protein, UniProt P36006 1-1272, looked up)
Myosin-3: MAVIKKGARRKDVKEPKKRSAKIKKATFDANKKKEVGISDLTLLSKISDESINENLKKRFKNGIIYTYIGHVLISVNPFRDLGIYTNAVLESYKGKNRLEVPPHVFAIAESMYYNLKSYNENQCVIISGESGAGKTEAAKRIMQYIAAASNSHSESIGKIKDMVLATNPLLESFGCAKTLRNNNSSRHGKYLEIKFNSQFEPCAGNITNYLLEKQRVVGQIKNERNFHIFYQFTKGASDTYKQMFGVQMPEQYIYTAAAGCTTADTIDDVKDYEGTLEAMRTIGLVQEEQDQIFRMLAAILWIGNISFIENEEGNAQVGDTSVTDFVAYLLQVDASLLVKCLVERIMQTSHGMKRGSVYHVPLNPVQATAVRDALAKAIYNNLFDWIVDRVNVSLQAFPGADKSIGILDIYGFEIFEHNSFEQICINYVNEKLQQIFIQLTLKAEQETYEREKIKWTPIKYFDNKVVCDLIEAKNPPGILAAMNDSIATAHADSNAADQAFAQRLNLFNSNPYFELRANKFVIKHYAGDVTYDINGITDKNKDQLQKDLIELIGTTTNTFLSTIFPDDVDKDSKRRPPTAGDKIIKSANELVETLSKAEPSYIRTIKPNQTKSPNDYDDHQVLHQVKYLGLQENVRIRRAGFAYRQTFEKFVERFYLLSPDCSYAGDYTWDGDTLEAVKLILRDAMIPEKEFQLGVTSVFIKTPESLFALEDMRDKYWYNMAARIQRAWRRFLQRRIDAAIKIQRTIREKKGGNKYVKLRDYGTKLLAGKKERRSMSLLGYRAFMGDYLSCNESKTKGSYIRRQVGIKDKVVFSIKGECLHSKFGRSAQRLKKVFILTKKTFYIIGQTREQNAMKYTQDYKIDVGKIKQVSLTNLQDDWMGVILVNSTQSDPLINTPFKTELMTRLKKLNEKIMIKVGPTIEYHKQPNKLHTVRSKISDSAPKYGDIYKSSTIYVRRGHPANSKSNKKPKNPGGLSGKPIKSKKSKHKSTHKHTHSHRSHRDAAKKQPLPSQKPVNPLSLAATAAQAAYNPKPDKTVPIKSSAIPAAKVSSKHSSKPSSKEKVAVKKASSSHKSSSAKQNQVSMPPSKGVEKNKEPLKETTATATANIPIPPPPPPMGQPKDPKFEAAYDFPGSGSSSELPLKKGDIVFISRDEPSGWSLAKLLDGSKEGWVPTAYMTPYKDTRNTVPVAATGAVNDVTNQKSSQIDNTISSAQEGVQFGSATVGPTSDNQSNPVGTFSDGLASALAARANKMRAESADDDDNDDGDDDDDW
Growth (Fig. S2D) (Bathophenanthroline.0.1uM): 10.752 | Growth (Fig. S2D) (Bathophenanthroline.10uM): 10.5714 | Growth (Fig. S2D) (Bathophenanthroline.1uM): 10.7108 | Growth (Fig. S2D) (CaCl2.250mM): 10.7527 | Growth (Fig. S2D) (CaCl2.500mM): 10.1691 | Growth (Fig. S2D) (Caffein.10mM): 9.976 | Growth (Fig. S2D) (Caffein.2mM): 10.8692 | Growth (Fig. S2D) (CdCl2.100uM): 9.202 | Growth (Fig. S2D) (CdCl2.10uM): 10.8049 | Growth (Fig. S2D) (CdCl2.50uM): 9.536 | Growth (Fig. S2D) (CuSO4.1mM): 10.0301 | Growth (Fig. S2D) (CuSO4.5mM): 7.358 | Growth (Fig. S2D) (Cycloheximide.0.05.uM): 11.0001 | Growth (Fig. S2D) (Cycloheximide.0.2.uM): 10.4991 | Growth (Fig. S2D) (Cycloheximide.0.5.uM): 9.9209 | Growth (Fig. S2D) (DMSO.2.): 10.998 | Growth (Fig. S2D) (DMSO.6.): 9.853 | Growth (Fig. S2D) (DMSO.8.): 9.243 | Growth (Fig. S2D) (Ethanol.2.): 10.6338 | Growth (Fig. S2D) (Ethanol.6.): 10.0843 | Growth (Fig. S2D) (Ethanol.8.): 9.865 | Growth (Fig. S2D) (Galactose.2.): 10.6373 | Growth (Fig. S2D) (Glycerol.2.): 8.89 | Growth (Fig. S2D) (Hydroxyurea.25mM): 10.6592 | Growth (Fig. S2D) (Hygromycin.190uM): 10.9229 | Growth (Fig. S2D) (Hygromycin.19uM): 10.8956 | Growth (Fig. S2D) (Hygromycin.95uM): 10.9112 | Growth (Fig. S2D) (MMS.0.004.): 10.8802 | Growth (Fig. S2D) (MMS.0.02.): 10.4477 | Growth (Fig. S2D) (MMS.0.04.): 9.333 | Growth (Fig. S2D) (Menadione.100uM): 10.5316 | Growth (Fig. S2D) (Menadione.200uM): 10.3415 | Growth (Fig. S2D) (Menadione.50uM): 10.7191 | Growth (Fig. S2D) (NaCl.0.25M): 10.6458 | Growth (Fig. S2D) (NaCl.1M): 9.0624 | Growth (Fig. S2D) (Nitroquinoline.10uM): 10.5815 | Growth (Fig. S2D) (Nitroquinoline.50uM): 10.5108 | Growth (Fig. S2D) (Nystatin.0.01uM): 10.9576 | Growth (Fig. S2D) (Nystatin.0.1uM): 10.9795 | Growth (Fig. S2D) (Raffinose.2.): 10.915 | Growth (Fig. S2D) (Rapamycin.10nM): 9.682 | Growth (Fig. S2D) (Rapamycin.50nM): 9.448 | Growth (Fig. S2D) (SC.pH3): 10.2912 | Growth (Fig. S2D) (SC.pH6): 10.9261 | Growth (Fig. S2D) (SDS.0.01.): 10.9246 | Growth (Fig. S2D) (SDS.0.02.): 10.9437 | Growth (Fig. S2D) (SDS.0.05.): 10.7731 | Growth (Fig. S2D) (Sorbitol.10mM): 10.9112 | Growth (Fig. S2D) (Sorbitol.1mM): 11.0073 | Growth (Fig. S2D) (Sorbitol.5mM): 10.8833

B2: LSB3 (protein)
chain: MGINNPIPRSLKSETKKAAKILASFVKPNQVFGADQVIPPDVLKRAKGLAIITILKAGFLFSGRAGSGVIVARLKDGTWSAPSAIAMAGAGAGGMVGIELTDFVFILNTQDAVKSFSEFGTITLGGNVSVSAGPLGRSAEAAASASAGGVAAVFAYSKSKGLFAGVSVEGSAIIERREANRKFYGDNCTAKMILSGRIRPPPAVDPLFRVLESRAFNYRPSNGGRGSFDDDEDDYYDDDDYYNDIPSSFSSTDASSTRPNTRSTRRRAQSGSRYTFDDDDDDDDYGTGYSRNSRLAPTNSGGSGGKLDDPSGASSYYASHRRSGTAQSRARSSRNRWADDEYDDYDDDYESGYRRGNGRDRTKDREVDDLSNRFSKSRISSASTPQTSQGRFTAPTSPSTSSPKAVALYSFAGEESGDLPFRKGDVITILKKSDSQNDWWTGRVNGREGIFPANYVELV
modifications: left off: DHFR F[3], C-terminal, kept
Growth (Fig. S2D) (Bathophenanthroline.0.1uM): 10.8613 | Growth (Fig. S2D) (Bathophenanthroline.10uM): 10.7004 | Growth (Fig. S2D) (Bathophenanthroline.1uM): 10.8044 | Growth (Fig. S2D) (CaCl2.100mM): 10.8415 | Growth (Fig. S2D) (CaCl2.250mM): 10.752 | Growth (Fig. S2D) (CaCl2.500mM): 10.2861 | Growth (Fig. S2D) (Caffein.10mM): 10.1331 | Growth (Fig. S2D) (Caffein.2mM): 11.0359 | Growth (Fig. S2D) (CdCl2.100uM): 9.517 | Growth (Fig. S2D) (CdCl2.10uM): 10.8992 | Growth (Fig. S2D) (CdCl2.50uM): 9.9 | Growth (Fig. S2D) (CuSO4.1mM): 10.501 | Growth (Fig. S2D) (CuSO4.5mM): 7.988 | Growth (Fig. S2D) (Cycloheximide.0.05.uM): 11.1308 | Growth (Fig. S2D) (Cycloheximide.0.2.uM): 10.6758 | Growth (Fig. S2D) (Cycloheximide.0.5.uM): 10.143 | Growth (Fig. S2D) (DMSO.2.): 11.0244 | Growth (Fig. S2D) (DMSO.6.): 9.802 | Growth (Fig. S2D) (DMSO.8.): 9.136 | Growth (Fig. S2D) (Ethanol.2.): 10.7759 | Growth (Fig. S2D) (Ethanol.6.): 10.3185 | Growth (Fig. S2D) (Ethanol.8.): 10.0689 | Growth (Fig. S2D) (Galactose.2.): 10.7876 | Growth (Fig. S2D) (Glycerol.2.): 9.905 | Growth (Fig. S2D) (Hydroxyurea.25mM): 10.8417 | Growth (Fig. S2D) (Hygromycin.190uM): 11 | Growth (Fig. S2D) (Hygromycin.19uM): 10.9944 | Growth (Fig. S2D) (Hygromycin.95uM): 11.0899 | Growth (Fig. S2D) (MMS.0.004.): 10.9826 | Growth (Fig. S2D) (MMS.0.02.): 10.7326 | Growth (Fig. S2D) (MMS.0.04.): 10.0186 | Growth (Fig. S2D) (Menadione.100uM): 10.5511 | Growth (Fig. S2D) (Menadione.200uM): 10.5189 | Growth (Fig. S2D) (Menadione.50uM): 10.8398 | Growth (Fig. S2D) (NaCl.0.25M): 10.7826 | Growth (Fig. S2D) (NaCl.1M): 9.561 | Growth (Fig. S2D) (Nitroquinoline.10uM): 10.7432 | Growth (Fig. S2D) (Nitroquinoline.50uM): 10.6203 | Growth (Fig. S2D) (Nystatin.0.01uM): 11.0314 | Growth (Fig. S2D) (Nystatin.0.1uM): 11.0473 | Growth (Fig. S2D) (Raffinose.2.): 11.0154 | Growth (Fig. S2D) (Rapamycin.10nM): 9.815 | Growth (Fig. S2D) (Rapamycin.50nM): 9.462 | Growth (Fig. S2D) (SC.pH3): 10.4429 | Growth (Fig. S2D) (SC.pH6): 11.0914 | Growth (Fig. S2D) (SDS.0.01.): 10.9846 | Growth (Fig. S2D) (SDS.0.02.): 11.0384 | Growth (Fig. S2D) (SDS.0.05.): 10.8514 | Growth (Fig. S2D) (Sorbitol.10mM): 10.9664 | Growth (Fig. S2D) (Sorbitol.1mM): 11.0248 | Growth (Fig. S2D) (Sorbitol.5mM): 10.914
